Usually stoichiometry N stands for the number of molecules, sites or subunits per partner or assembly. The term Km denotes the substrate concentration at which the rate is half of its maximum. As usually defined, the kcat/Km is the second-order rate constant that governs catalysis at low substrate concentration.

The text below walks through data of publication PMC10886158, “A New Phenolic Acid Decarboxylase from the Brown-Rot Fungus Neolentinus lepideus Natively Decarboxylates Biosourced Sinapic Acid into Canolol, a Bioactive Phenolic Compound” (Bioengineering, 2024).

In series [1] the target is native phenolic acid decarboxylase from Neolentinus lepideus strain BRFM15 (NlePAD) (Neolentinus lepideus (strain BRFM15)). Briefly: SEC; purified native NlePAD on a Superdex 75 Prep Grade column in buffer A (20 mM sodium phosphate pH 7.5, 0.4 M saccharose, 2 mM DTT); calibrated with BSA, alpha-amylase, ovalbumin, casein and lysozyme; native mass 43-45 kDa compared with the 22 kDa band in SDS-PAGE. A general note: Size exclusion chromatography separates by hydrodynamic size, large species first.

Substrate in series [2]: COc1cc(/C=C/C(=O)O)ccc1O
Briefly: purified protein. Conditions: pH 6, 50 mM sodium phosphate, 45 °C, 0.5-10 mM substrate, 30 min, apparent KM.

Substrate in series [3]: COc1cc(/C=C/C(=O)O)cc(OC)c1O
Kind of series: HPLC of canolol formed, Lineweaver-Burk plot. It is filed as biochemical, Neolentinus lepideus. Conditions: pH 6, 50 mM sodium phosphate, 37 °C, 0.5-10 mM substrate, 30 min, apparent KM.

With “native phenolic acid decarboxylase from Neolentinus lepideus strain BRFM15 (NlePAD) (enzyme)”, the stoichiometry N in series [1] worked out at 2.

B1: NlePAD (Neolentinus lepideus HHB14362 ss-1) (protein)
chain: MSHEGATSEEFKQIEGKRFKYTYGLGWTYEMYFRSLTRCVYRILSGPLAGRVNFQHAHYQKIRDNVWQCSWLEETGTVVSMVVDFDQQTVKTFATFSRGHWDLPDQAKGWKRNPEDMARWRTLAQKGKDQADKHVLVEHAKMSELTSGQGDLPDIDDSWETM
notes: homodimer 2 x 22 kDa (SEC 43-45 kDa)
Take B1: in series [2], the Km is given as 2.6 mM and the kcat/Km is 14800 M⁻¹ s⁻¹. Also, in series [3], the Km is recorded as 3.9 mM and the kcat/Km is 1600 M⁻¹ s⁻¹.
